From the nanobody polyreactivity screen of Harvey et al. (2022)

assay: yeast display, Sf9 membrane polyspecificity reagent, FACS + sequencing; frameworks hold sequencing errors
Method in brief: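 In a synthetic yeast display library (Saccharomyces cerevisiae BJ5465), nanobody expression was induced with galactose for 36–48 hours. FACS gates were set low and high (top ~1%) using anti-HA fluorescence for expression and streptavidin fluorescence for binding of the Sf9 membrane reagent. Each polyreactivity label is drawn from the gate of origin.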

Sequence | polyreactivity (PSR sort gate)
QVQLVESGGGLVQAGGSLRLSFAASGRTFYIYAMGLYRQDPGKEREMVAAITYGGGRTFYADSVKGRFTISRDNAKYTVYLQMNSLKPEDTAVYYCAKTDTYPRYGRGYDYWGQGTQVTVSS | high polyreactivity
QVQLVESGGGLVQAGGSLRLSFAASGSIFLFNAMGWYRQAPGKERELVAAITSPTARTYYADSVKGRFTISRDNAKNTVYLQMNSLKPEDTAVYYCAARYRYAYGYGRGYSWGQGTQVTVSS | high polyreactivity
QVQLVESGGGLVQAGGSLRLSFAASGSIFYRNAMGWYRQAPGKERELVASISASGGRTYYADSVKGRFTISRDNGKNTVYLQMNSVKPEDTAFYYCNKVSPVAYWYSWGINFDYWGQGTQVTVSS | high polyreactivity
QVQLVESGGGLVQAGGSLRLSFAASGSNFGPNGMGWYRQAPGKERELVARIDRIGGGTYYADSVKGRFTISRDNAKNNVYLKMNSLKPEETAVYYCAKSGSAYWHSGWSVGFDYWGQGTQVTLSS | low polyreactivity
QVQLVESGGGLVQAGGSLRLSFAASGSTFDWYVMGWYRQAPGKERELVAAINQGSGSTYYADSVKGRFTISRDNAKNTVYFQMNSLKPEDTAVYYCAADRYGAGYLYWPYDYWGQGTQVTVSS | low polyreactivity
QVQLVESGGGLVQAGGSLRLSFAASGSTFGVNAMGWYRQAPGKERELVAVITRSGGSTYYADSVKGRFTISRDNAKNTVYLQMNSLKPEDTAVYYCGKSGVVDWGQGTQVTVSS | low polyreactivity
QVQLVESGGGLVQAGGSLRLSFAASGSTFNVHAMGGYRQAPGKERELVAAITSSGGSTNYADSVKGRFTISRDTAKNSVYLQLNSLKPEDTAVYYCAADAIYFSRLNLGYDYWGQGTQVTVSS | low polyreactivity
QVQLVESGGGLVQAGGSLRLSFAAYGSIFWGYAMGWYRQAPGKERELVAAISSSGGNTYYADSVKGRFTISRDNAKNTVYLQMNSLKPEDTAVYYCAATPEFYGGKITDVYSQYGYWGQGTQVTVSS | low polyreactivity
QVQLVESGGGLVQAGGSLRLSGAASGFIFAAYAMGWYRQAPGKERELVASISNGGGSTYYADSVKGRYTISRDNAKNTVYLQMNSQNPEVSAVYYCNARQYYAVTRKYYVRLDYWGQGTQVTVES | high polyreactivity
QVQLVESGGGLVQAGGSLRLSGAASGGTFDYYAMGRYRQAPGKERELVAAISTSGGRTYYADSVKGRFTISRDNAKYTVYLQMNSLKPEDTAVYYCAALSPRAKYASFYYWGQGTQVTVSS | high polyreactivity
QVQLVESGGGLVQAGGSLRLSGAASGRIFQRYVMGWYRQAPGKERELVAAISYSGARTYYADSVKGRFTISRDNAKNTVYLQMNSLKPEDTAVYYCAARIRNWPAMDYWGQGTQETVSS | high polyreactivity
QVQLVESGGGLVQAGGSLRLSGAASGRTFRGNVMGWYRQAPGKEREFVAAITKSDGSTYYADSVKGRFTISRDNAKNTVYLQMNSLKPEDTAVYYCAARTARTGWPWFRYDYWGQGTQVTVSS | low polyreactivity
QVQLVESGGGLVQAGGSLRLSGAASGRTFRKYAMGWYRQAPGKERELVAAISWSGGSTYYANSVKGRFTISRDNAKNTVYLQMNSLKPEDTAVYYCAAVPVHTGSLYWGFTTGYDYWGQGTQVTVSS | low polyreactivity
QVQLVESGGGLVQAGGSLRLSGAASGRTFYQYAMGWYRQAPGKARELVAAISWSDGSTSYADSVKGRFTISRDNAKNTVYLQMNSLKPEDTAGYYCAKDWTGTKAIEYDYWGQGTQVTVSS | low polyreactivity
QVQLVESGGGLVQAGGSLRLSGAASGRTLYGYAMGWYRQAPGKERELVARITGRDGSTDYADSVKGRFTISRDNAKNTVYFPMNSLKPEETAVYSCNARVRFHWYRSDYWGQGTEVTVSS | high polyreactivity
QVQLVESGGGLVQAGGSLRLSRAASGFIFVQNAMVWYRQAPGKERELVASLTSGGTTNYADSVKGRFTISRDNAKNTVYLQMNSLKPEDTAVYYCNARLERTPSLYLYGSWGQGTQVTESS | low polyreactivity
QVQLVESGGGLVQAGGSLRLSRAASGRTFRTYAMGWYRQAPGKERELVAAITSGGNTYYADSVKGRFTISRDNAKNTVYLLMNSLKPDDTAVYYCAAAASGFSRYRSTTWGQGTQGTVSS | high polyreactivity
QVQLVESGGGLVQAGGSLRLSRAASGSIFKYYAMGWYRQAPGKERELVAAITYSGGSTFYADSVKGRFTISRDNAKNTVYLQMNSLKPEDTAVYYCNKVYKSYYWGGYDWGQGTQVTVSS | high polyreactivity
QVQLVESGGGLVQAGGSLRLSSAASGFIFIINAMGWYRQAPGKEREFVAAITGSGGSTYYADSVKGRFTISRDNAKNTVYLQMNSLKPEDTAVYYCANVGPYYSGKVYGRTYYSRYGYWGQGTQVTVSS | low polyreactivity
QVQLVESGGGLVQAGGSLRLSSAASGFIFKYNAMGWYRKAPGKERELGAAITWSGGSTYYADSVKGRFTISRDNAKNTVYLQMNSLKPEDTAVYYCAARPYRTKLIYGYWGQGTHVTVSS | high polyreactivity
QVQLVESGGGLVQAGGSLRLSSAASGFIFPDYAMGWYRQAPGKERELVAAISFRDGSTYYADSVKGRFTISRDNAKNTVYLQMNSLKPEDTAVYFCAVRQVNWFGIGYEDDYWGQGTQVTVSS | low polyreactivity
QVQLVESGGGLVQAGGSLRLSSAASGFIFRGYAMGWYRQAPGKERELVAVISRSGTSTYYADSVKGRFTFSRDNAKNTVYLQMNSLKPEDTAVYYCAVLNYAGKYYYWGQGTQVTVSS | high polyreactivity

Sequence | polyreactivity (PSR sort gate)
QVQLVESGGGLVQAGGSLRLSSAASGFIFSYNAMRWYRQARGKERELVAAITYSDGGTYADSVKARFTISRDNAKNTVDLQMHSLKPEDTAVYYCARRQVLYSRDFEYDYWGQGTLVTVSS | low polyreactivity
QVQLVESGGGLVQAGGSLRLSSAASGFIFTDYAMGWYIEAPGKEREFVAAIDWSGGNTYYADSVKGRFTISRDNAKNTVYLQMNSLKPEDTAVYYCAASGSAREYDYWGQGSQVTVSS | low polyreactivity
QVQLVESGGGLVQAGGSLRLSSAASGFIFVGNAMGWYRQAPGKERELVATISGADSTNYADSVKGRFTISRDNAKNTVYLQMNSLKPEDTAVYDCAKEGYSYFDGNYGPYRYDYWGQGTQVTVSS | low polyreactivity
QVQLVESGGGLVQAGGSLRLSSAASGFILGYNTMGWYRQAPGKESELVAAINLSGASTYYADSVKGRFTISRDNAKNTVYLQMNSLKPEDTAVYYCGVRFYSGPGGYPTTRYYYWGQGTQVTVSS | high polyreactivity
QVQLVESGGGLVQAGGSLRLSSAASGFTFAYYAMGWYRQAPGKERELVAAITRGGGRTFYADSVKGRFTISRDNAKNTVYLQMNSLKPEDTAVYYCAAVKDTTNSRGYGYWGQGTQVTVSS | high polyreactivity
QVQLVESGGGLVQAGGSLRLSSAASGFTFFYYAMGWYRQAPGKERELVAAISASGGSTSYADSVKGRFTISRDNAKNTVYLQMNSLKPEDTAVYYCAARVYSVRSGYYYWGQGTQVTVSS | high polyreactivity
QVQLVESGGGLVQAGGSLRLSSAASGFTFGNNAMVWYRQAPGKEREFVATISRRGGSTYYADSVKGRFTISRDNAKNTVYLLMNSLKPEDTAVYYCAVDRAGIKFAAGYDYWGQGTQVTVSS | high polyreactivity
QVQLVESGGGLVQAGGSLRLSSAASGFTFPAYTMGWSRQAPGKERELVAAITSSGGNTYYADSVKGRFTISRDNAKNTVYLQMNSLKPEDTAVYYCAADWDYPYDEAVSKDIDYDYWGQGTQVTVSS | low polyreactivity
QVQLVESGGGLVQAGGSLRLSSAASGFTFRRYAMGWYRQAPGKERELVAAISIRGGRTYYADSVNGRFTISRDNAKNTVYLQMNSLKPEDTAVNYCAADGVYALDVESDYWGQGTQVTVSS | high polyreactivity
QVQLVESGGGLVQAGGSLRLSSAASGFTFSGYDMGWYRQAPGKERELVAGISSGGVSTTYADSVNGRFTISRDNAKNTVYLQMNSLKQEDTAVYYCNAEWTSFDWGQGTQVTVSS | low polyreactivity
QVQLVESGGGLVQAGGSLRLSSAASGFTVKYNTMGSSRQAPGKEREMVAAISWDGTSTYYADSVKGRFTISRDYAKNTVYLQMNSLKPEDTAVYYCATDAVGAWWSYLSGYGYWGQGTQVTVSS | high polyreactivity
QVQLVESGGGLVQAGGSLRLSSAASGGIFWYYTMGWYRQAPGKERELVAAISWSGGRTYYADSVKGRFTISRDNAKNTVYLQMNSLKPEDTAVYYCAATFRGVLGWYHYEYWGQGTQVTVSS | high polyreactivity
QVQLVESGGGLVQAGGSLRLSSAASGIIFGGSAMGWYRQAPGKEWELVAAISRSGGSTYYADSVKGRFTISRDNPKKTVYLQMNSLKPEDTAVYYCNAVPRRKGFNYWGQGTQVTVSS | high polyreactivity
QVQLVESGGGLVQAGGSLRLSSAASGIIFSTYAMGWYRQAPGKERELVAAITSTGSTNYADSVKGRFTISRDNAKNTVYFQMNSLKPEDTAVYYCNAALNVSGHYPNDYWGQGTQVTVSS | low polyreactivity
QVQLVESGGGLVQAGGSLRLSSAASGITFPRYAMGWYRQAPGKERELVAAITRRGGSTYYADSVKGRFTISRDNAKNTVYLQMNSLKPEDTAVYYCNTDMRYSYYLPGYDYWGQGTQVTVSS | high polyreactivity
QVQLVESGGGLVQAGGSLRLSSAASGITFRGSAMGWYRQAPGKERELVASITNTDSTYYADSVKGRFTISRDNAKHTVYLQMNSLKPEDTAVYYCAARRGRKYGYWGQGTQVTVSS | high polyreactivity
QVQLVESGGGLVQAGGSLRLSSAASGITFYLYAMGWYRQAPGKERELVAGISSGGSTNYADSVKGRFTISRDNAKNTVYLQMNSLKPEDTAVYYCAAKLRGYRYGYWGHGTQVTVSS | high polyreactivity
QVQLVESGGGLVQAGGSLRLSSAASGITFYYYAMGWYRQAPGKERELVAAINWSGTSTYYADSVKGRFTISRDNAKNTVYLQMNSLKPEDTAVYYCNAERGRSFWWAYDYWGQGTQVTVSS | low polyreactivity
QVQLVESGGGLVQAGGSLRLSSAASGLTFHRYAMGWYRQAPGKERELVAGISWSGASTYFADSVKGRFTISRDNAKNTVYLQMNSLKPEDTAVYYCAAVVPGLAYYRHGYWGQGTQVTVSS | high polyreactivity
QVQLVESGGGLVQAGGSLRLSSAASGLTFPIYAMVWYTQAPGKEREFVAVITTSGGSTYYADSVKGRFTISRDNAKNTVFLQMNSLKPEDTSVYYCNARRIRHYYWGQGTQVTVSS | high polyreactivity
QVQLVESGGGLVQAGGSLRLSSAASGLTLRTYAMGWYRQETGQERELVAAITSGGGSTYYADSVKGRFTISRDNSKNTVYLQLNSLNQEDTAFYYCAAKPVVRYVSFGYDYWGQGTDVTVSS | high polyreactivity
